Test: soluble on expression in E. coli; label from the status in PepcDB or PDB records

| Sequence | soluble on expression in E. coli |
| --- | --- |
| MAHHHHHHMAAYGIVESPDNVDYKTKCCCQTTDGVYFQVPKEYFRLHANLSRRKLLIAEPFGVPLDSSAFESLVVLLEKAAIVSPAAATAGTEVVSKGDGAKQQWIKDLNKRQQKFVGACLGVTTWDGADVYFYEEKLPKESDVVWVKVIQVNDTSAVVQLLEYGNHEGIIPYTEITRIRIRAIGKVIKVGKNEAAQVIRIDKDKGYIDLSKKQVTLKEAKDCEARFFKGNEVRSVVCHVADECGVPPAEAMKRIAYPLYRRQPGKHAWEWLYELNQTKDVKGILGDLEISEAEIKVLMTTLEHTMRTEIATIHADIEMTCFQCDGVNALREVLLVGRDFKAGKDPLIPISVTIVGPPKYRLRAKTELKEEGIVRMKEAIEMMKIEMAKRGGILKVVAGPFVLGEEEHTKEERNEDAEDDEGEDTD | not soluble |
| MNKKELIDILLYDVALEHSAIIQYLYNVFLIGDPEITNEIESIARQEMRHLKWFAQKVVELGGKVTLNRIEEAIKVGQSWEEMLKNDVDAEEEAIKIYSQQLEIVKDDSVKKLLDRVINDEMRHRDEFSEMLEELKNKKIEEAKQEAGIDSEIFNILNKLLQKEYRLILDYLYHFFHSKTWQEKDTSLDIAIESMFHMGELGEKIGELGGYPDLSLPKAKHFKGFTPEEVIEDIKEEETASRMYEENAKKVTREDLVKLFKWFEKQEDYHAQRLKELFRKMNRFTIGGLGEES | not soluble |
| MAHHHHHHMFSESDRRVRYTKGIGPQEASKEGGLLGDEGGKTWRMPKDKPQQNPASVDDNRIDDSIARGDGDNARDSGDGPGDNFLFTPTAARVDVHPLVLLSLVDHYARVNTKVTQKRRVAGLLLGRYKRLPDGTQLLDINNSFAVPFDEDPHNSDVWFVDTNYADEMFHMFRRVLPRVQVVGWYSAGPSFSVQPNDMLLHLLVADRFTANPVYCIVNTDPGNKGVPVLAYTTVQGREGVRSLEFRNIPTHLGAEEAEEIGIEHLLRDLTDSTITTLSTQIQERELSLAHLSCVLQSIEDYLQDVAEGLMPISEDVLSVLQELISLQPHIYHLKRSTEMIRHSNDQAIAMFIAAIGRCVGALYDVIANRRRINSEMVEVRARREQALKEKLEHEQHKAKEVVTTEKDENNNAK | not soluble |
| MVSSKLATPLSIQGEVIYPDDSGFDAIANIWDGRHLQRPSLIARCLSAGDVAKSVRYACDNGLEISVRSGGHNPNGYATNDGGIVLDLRLMNSIHIDTAGSRARIGGGVISGDLVKEAAKFGLAAVTGMHPKVGFCGLALNGGVGFLTPKYGLASDNILGATLVTATGDVIYCSDDERPELFWAVRGAGPNFGVVTEVEVQLYELPRKMLAGFITWAPSVSELAGLLTSLLDALNEMADHIYPSVFVGVDENRAPSVTVCVGHLGGLDIAERDIARLRGLGRTVSDSIAVRSYDEVVALNAEVGSFEDGMSNLWIDREIAMPNARFAEAIAGNLDKFVSEPASGGSVKLEIEGMPFGNPKRTPARHRDAMGVLALAEWSGAAPGSEKYPELARELDAALLRAGVTTSGFGLLNNNSEVTAEMVAEVYKPEVYSRLAAVKREYDPENRFRHNYNIDPEGS | soluble |
| TKDFEWKTTVTASHNANKLLSLSNDLYETSNQIDHAYLGEPINLSTQRMEVGRSMGQFYGMKSVGVSENGLWMVENTKTGEIEEFTDNMLSNDDYRQYLGNALPKLYLGWNNSFRYKNFDLSFQMTGQFGFKILNEPRAYYENNSIAYNRLKSVQKAPYGGQYTLSTAQKQTFVSYYLEDGDFLKMTNITLGYNIPLKSSKFVKNIRAYVSADNLFCITGYDGLDPEMSNGDIWSLGIDWRDKYPSTRSFTFGLNVSF | not soluble |
| MKLASPKPFTFEGGDRAVLLLHGFTGNSADVRMLGRFLEKKGYTCHAPIYKGHGVPPEELVHTGPEDWWQDVTEAYQLLKDKGFEKIAVVGLSLGGVFSLKLGYTVPVLGVVPMCAPMYIKSEETMYQGILAYAREYKKREQKSPEQIEQEMLEFQKTPMNTLKALQQLIADVRNNVDMIYVPTFVVQARHDEMINTDSANIIYNGVESTLKDIKWYEDSTHVITLDKQRDELHEDVYNFLEQLDW | not soluble |
| MTITYSGDELFLQLRGDLLNYLCRKLSKDEAADILQEIYLRWRRQDISSIENPRAFLFTVALNLIRDQARRQAHVQTYANTMQHLFQDKPADYDLAQHCDERRQIEYLQQALDQLPENVRHAFLLFRLDGLTFAEIALQMGISSKSVARYIQHASEHCLTALAQYR | not soluble |
| MSLRMNAMKIISVNVGQPTALQVGQRTAVSGIRKHPVPGRVQVGEKGLEGDHVLNRRYHGGPDQAVYVYTREDYDHWTELLGRALEPGAFGENVLISGAESAEVRVGERFLLGAVEIEVTAPRLPCSTLGARMEDAGFVKRFKAARRPGFYARVLQSGDIGRGDPVTRTPAPDGAPTIGELFDADFAKSHDPAELRAWLTFPLGKRQRKEVEKWLAKAEGEGHHHHHH | soluble |
| MSLGLVLSTNVAHIQQDPGGDDRISGINKLPVATGIDVFIPGPNYGDGSGVVGDAIGDSLHHGGAHKAIYAYSREELDFFDPTYRNGYFGENLTTSGIVLEDLLINQQVRIGTTLLEVSIPRRPCRTFAHWLDIKGWLKTFTQRGLPGSYFRVIEEGHINPGDPIEVLQAPDHDITMSMAFRAKMGNKDLARRVVAANCLPARYHEELLKLIEGHHHHHH | not soluble |
| MSLVSSLSFNFAPDFRPLAARMRPRTIAEYIGQAHLLGEGQPLRQALEAGRAHSMMLWGPPGTGKTTLAELIAHYSNAHVERISAVTSGVKDIRGAIEQAQAIAQSRGQRTLLFVDEVHRFNKSQQDAFLPFIEDGTVIFIGATTENPSFEINNALLSRARVYLIKRLSQDEIVHIITQALADTERGLGQRALNMPTDVLNKLAQLCDGDARKALNLLELMSDMVADGGTFTTEMLVQVAGHQVAGFDKNGDQFYDLISAVHKSIRGSAPDAALYWFCRILEGGGDPLYVARRLLAIASEDVGNADPAAMTIALNAWECFHRVGPAEGERAIAQAIVYLASAPKSNAVYTAFKAARALARETGQEAVPYHLRNAPTKLMAEMGFGAEYRYAHDEPNAYASGENYFPESLKESQFYFPTERGFEKRIKDKLVQLAQLDQASGRKREGHHHHHH | soluble |
| MSEQSICQARASVMVYDDTSKKWVPIKPGQQGFSRINIYHNTASSTFRVVGVKLQDQQVVINYSIVKGLKYNQATPTFHQWRDARQVYGLNFASKEEATTFSNAMLFALNIMNSQEGGPSTQRQVQNGPS | soluble |
| MELQEVLHMNGGEGDTSYAKNSSYNLFLIRVKPVLEQCIQELLRANLPNINKCFKVGDLGCASGPNTFSTVRDIVQSIDKVGQEKKNELERPTIQIFLNDLFQNDFNSVFKLLPSFYRNLEKENGRKIGSCLIGAMPGSFYSRLFPEESMHFLHSCYCLHWLSQVPSGLVTELGISVNKGCIYSSKASRPPIQKAYLDQFTKDFTTFLRIHSEELISRGRMLLTFICKEDEFDHPNSMDLLEMSINDLVIEGHLEEEKLDSFNVPIYAPSTEEVKRIVEEEGSFEILYLETFNAPYDAGFSIDDDYQGRSHSPVSCDEHARAAHVASVVRSIYEPILASHFGEAILPDLSHRIAKNAAKVLRSGKGFYDSVIISLAKKPEKADM | soluble |
| AIADYSNTYGAYGGGGFLPESPARTGGNASTRFGVGSGSSLRDQRRSLLPVRVADLVHAVHDPVTNTFVLRDENEHQSITISEGSIVKVVAYVEELREQPLDLLWLLDDRSGEMIWARMASTSSSSLAALEQSGILVRVFGQLLEVDGRRVLNVRAIRKADGEVELRYHENLCQLSKLQLIRGYPTAGNALAGASSSPASPKAGPSKAVHRSSLGSGAPKEMAQQAPGLEIPAAFPPEHFKVLKCIREETARNRDAMLTDIAQRIALSTTKVRGICDALQNEGHIYCTLDDDTFRASSS | soluble |
| MSLTLFHAPRSRSTRIVTLLRELDAIDKVAIKIVDITRGDGSGRKDPKNLHPEGKVPLLDHDGVVIWESIAIIQYLTDLFPEKKMAPVAGDPQRGRYLSWLAWYAGVVEPVLIMQAAGISHPFVDFTFRSPAELAARLETALKDCPYLMGERYTAVDLLLHSPFAWCPAATPESDVVKAWIERCGERPSLQWTANYDACTVVAEGHHHHHH | soluble |
| MGSDKIHHHHHHMKATSSFKGQTTGLYIVPTPIGNLEDMTYRAVRILQESDLVAAEDTRQTMKLFNHFKIETKLVSYHEHNKQVSGARLLADLHAGKQIALVSDAGMPGISDPGSDLIREAIAEDIPVIVLPGANAALTALVASGLATERFLYYGFLPRKKKERREALETVRYEKGSLIFYEAPHRLKEMLGALRDVLGDRQLTLARELTKRYEEYIRGSVTEALEWAEEEVRGEFVVIVEGSTEERPAEEEQKADPLQQIERYIEQGEKPNAALKRVAKERGLDRQELYLRYHES | not soluble |
| MGSDKIHHHHHHMSIPNAIKHTQTDSALSNIALSNTRDHLLTTGYKLIAQKGFTAVGIKQILDTAGVPKGSFYHYFASKEAFGEAIISHYFTQYKQRLNIIGSQDVSAQQKLYDYFQNWYDTQQSGCDHEKCLVVKLSAEVSDMSEPMRKVLHTGYQQTITWLATQIKAGWVDGSVPHPANVAAESMAKRWYFAWLGASLVTKISQTDTPLAEAWLMTTTAMGR | not soluble |
| FQGAMSSSIDISKINSWNKEFQSDLTHQLATTVLKNYNADDALLNKTRLQKQDNRVFNTVVSTDSTPVTNQKSSGRCWLFAATNQLRLNVLSELNLKEFELSQAYLFFYDKLEKANYFLDQIVSSADQDIDSRLVQYLLAAPTEDGGQYSMFLNLVKKYGLIPKDLYGDLPYSTTASRKWNSLLTTKLREFAETLRTALKERSADDSIIVTLREQMQREIFRLMSLFMDIPPVQPNEQFTWEYVDKDKKIHTIKSTPLEFASKYAKLDPSTPVSLINDPRHPYGKLIKIDRLGNVLGGDAVIYLNVDNETLSKLVVKRLQNNKAVFFGSHTPKFMDKKTGVMDIELWNYPAIGYNLPQQKASRIRYHESLMTHAMLITGCHVDETSKLPLRYRVEVSWGKDSGKDGLYVMTQKYFEEYCFQIVVDINELPKELASKFTSGKEEPIVLPIWDPMGALA | soluble |
| MSHIRVAFAPLDTNPSTCGLETFATQIETLSQMMTAEEMKAELYDCVRRILREQKFDQIRENEAMLRLYKVMGRSSTNLKGRGIYEQLFKKDHFTGSLKFYLQWAEECGKDQMLEEFKDVLKLARDRLSERIEMTAIESGFRDLVDEYFNGESGDMFTRPDETMDLFRFNAGSKKKRRSSVCFLQHNVPINNSGKAAFGPKTKTDLRQACIDRPNYHGISIEEFRFAKWKDTFGEDVDDDYRKRKDSGVVFVKHQVIDTDRQAREEVENRFNANLNPRRRHLSPVSEKTVDDEEEKRSRIYSPLVATKDAHRPALRSKIENPPATVTLSSDTKSASEKDVSDSDDADDDERLKIMTAGRKDGNPPDRSTSISSNYSTASARTSKSGAGLDLMAENKCLEAHAMFSDTVHLASEKTMVLGDDSVFVPERSLATTQIVTDFSVLCDPDPTMTITQERPKKVSNGLNVVYDEAAEPEESQKVEESEVQPEIVLVSPVTQTSPATMFNDIYDDEIEFGFFKPSRGNFVTSTPAQGVHLVNIDEYFGNKEEESTHEQEAPVFVAPTSSTFSKLTRRKSLAANQAVQPSVTESSKPERSDPKDSSIDCLTANLGRRLSIGADEIPNLTENNESEITGCKIRRRSEIIKQGDINPWDETLRKKLMCLVRPPQNMHEFQERAPKIQALRDCEVSGEKLHIQTLIGQGGYAKVYRAVTDDQRTVAVKYEVPSCSWEVYICDQMRNRLKDRGLELMAKCCIMEVMDAYVYSTASLLVNQYHEYGTLLEYANNMKDPNWHITCFLITQMARVVKEVHASKIIHGDIKPDNFMITRKIDDKWGKDALMSNDSFVIKIIDWGRAIDMMPLKNQRFKGRAGTEAFDCPEMVDGRSWTYQADYFGFAATMAVVVAGKYAQLTGASVGDYSLNVDIKRRNILRDACYDVINRFLNIPSCDSLPDWNILIKSFSEIWNEKFEASGWRQAVSKFNEACDLAANQK | not soluble |

Source: the DeepSol protein solubility set
